Experimental data: PMC6180126, “A guanine-flipping and sequestration mechanism for G-quadruplex unwinding by RecQ helicases”

Columns and labels:
[1] = target: T1, CsRecQ catalytic core S245A (Cronobacter sakazakii, UniProt A7MQK9 1-521, S245A); assay: X-ray crystallography; discontinuous density in helicase/winged-helix cleft; 20 mM Tris-HCl pH 8.0, 100 mM NaCl, 1 mM MgCl2, 1 mM 2-mercaptoethanol, 0.1 mg/mL BSA, 4% glycerol; 5 nM DNA, 30 min at room temperature, read at 25 C (G4 folded in 10 mM Tris-HCl pH 8.0, 100 mM KCl); settings: protein: recombinant; tags: N-terminal His tag removed (thrombin); antiparallel G4 with 12 nt 3' ssDNA tail; resolved (unwound) in 6CRM
CsRecQ catalytic core = CsRecQ catalytic core (Cronobacter sakazakii, UniProt A7MQK9 1-521); assay: fluorescence anisotropy; apparent Kd; 1 mM Mg2+; 20 mM Tris-HCl pH 8.0, 100 mM NaCl, 1 mM MgCl2, 1 mM 2-mercaptoethanol, 0.1 mg/mL BSA, 4% glycerol; 5 nM DNA, 30 min at room temperature, read at 25 C (G4 folded in 10 mM Tris-HCl pH 8.0, 100 mM KCl); settings: protein: recombinant, tags: N-terminal His tag removed (thrombin)
EcRecQ catalytic core = EcRecQ catalytic core (Escherichia coli, UniProt P15043 1-523); assay: as above; settings: protein: recombinant, tags: N-terminal His tag removed (thrombin)
[2] = target: EcRecQ catalytic core D312A (Escherichia coli, UniProt P15043 1-523, D312A); assay: as above; settings: protein: recombinant, tags: N-terminal His tag removed (thrombin)
[3] = target: T1, CsRecQ catalytic core S245A; assay: fluorescence anisotropy; 1 mM Mg2+; Kd not determined (anisotropy decreased with time); 20 mM Tris-HCl pH 8.0, 100 mM NaCl, 1 mM MgCl2, 1 mM 2-mercaptoethanol, 0.1 mg/mL BSA, 4% glycerol; 5 nM DNA, 30 min at room temperature, read at 25 C (G4 folded in 10 mM Tris-HCl pH 8.0, 100 mM KCl); settings: protein: recombinant; tags: N-terminal His tag removed (thrombin); label: 3' FAM; intramolecular G4 (folded in 100 mM KCl) with 12 nt 3' ssDNA tail
[4] = target: T2, EcRecQ catalytic core S245A (Escherichia coli, UniProt P15043 1-523, S245A); assay: as above; settings: protein: recombinant; tags: N-terminal His tag removed (thrombin); label: 3' FAM; intramolecular G4 (folded in 100 mM KCl) with 12 nt 3' ssDNA tail
[5] = target: T1, CsRecQ catalytic core S245A; assay: fluorescence anisotropy; apparent Kd; 1 mM Mg2+; 20 mM Tris-HCl pH 8.0, 100 mM NaCl, 1 mM MgCl2, 1 mM 2-mercaptoethanol, 0.1 mg/mL BSA, 4% glycerol; 5 nM DNA, 30 min at room temperature, read at 25 C (G4 folded in 10 mM Tris-HCl pH 8.0, 100 mM KCl); settings: protein: recombinant; tags: N-terminal His tag removed (thrombin); label: 3' FAM on Duplex 1; 18 bp, 3' overhang 12 nt on strand 1
[6] = target: T2, EcRecQ catalytic core S245A; assay: as above; settings: protein: recombinant; tags: N-terminal His tag removed (thrombin); label: 3' FAM on Duplex 1; 18 bp, 3' overhang 12 nt on strand 1
[7] = label: 3' FAM, intramolecular G4 (folded in 100 mM KCl) with 12 nt 3' ssDNA tail
[8] = label: 3' FAM on Duplex 1, 18 bp, 3' overhang 12 nt on strand 1

B1: G4 DNA (structured_DNA)
DNA: TTAGGGTTAGGGTTAGGGTTAGGGTCGGTGCCTTACT
- binding result [1]: binds

B2: F-G4 (structured_DNA)
DNA: TTAGGGTTAGGGTTAGGGTTAGGGTCGGTGCCTTACT
- Kd (CsRecQ catalytic core; [7]): 4.7 ± 0.9 µM
- Kd (EcRecQ catalytic core; [7]): 1000 ± 100 nM
- Kd [2, 7]: 330 ± 40 nM
- binding result [3]: binds
- binding result [4]: binds

B3: Duplex 1/Duplex 2 (dsDNA)
DNA 1: GCGTGGGTAATTGTGCTTCAATGGACTGAC
DNA 2: AAGCACAATTACCCACGC
- Kd (CsRecQ catalytic core; [8]): 2.9 ± 0.3 µM
- Kd [5]: 4 ± 1.6 µM
- Kd [6]: 2200 ± 200 nM
- Kd (EcRecQ catalytic core; [8]): 950 ± 60 nM
- Kd [2, 8]: 280 ± 20 nM
